The target of assay [1] is Factor VIII obtained from plasma.
For assay [2], the target named is Factor VIII dB695-HCII (human).
For assay [3], the target named is Factor VIII dB695 (human) (UniProt P00451).

On to thrombin (enzyme), for which the second order rate constant of activation by thrombin (M^-1 s^-1 × 10^-6) in assay [1] worked out at 2.1e-06 M⁻¹ s⁻¹; in assay [2], 2.32e-05 M⁻¹ s⁻¹; in assay [3] it was 3e-06 M⁻¹ s⁻¹.

These data come from patent publication US6051418.
